Source: patent US20150315260A1 (Sanofi, published 2015)
Starred links: 1 amine or outer side, 2 acyl side, 3 side chain; linkers in the order of their positions; H or OH if unused. Non-standard residues stand in square brackets, D forms with d. Groups on a side chain read outwards from the residue. No end group written: not given here. *: point of attachment. γGlu = O=C(O)[C@H](CCC(=O)[*:2])N[*:1]; Stearoyl = CCCCCCCCCCCCCCCCCC(=O)*; Palmitoyl = CCCCCCCCCCCCCCCC(=O)*; Aib = CC(C)(N)C(=O)O

T1: human GIP receptor (human, UniProt P48546 22-466)
T1 sequence (looked up): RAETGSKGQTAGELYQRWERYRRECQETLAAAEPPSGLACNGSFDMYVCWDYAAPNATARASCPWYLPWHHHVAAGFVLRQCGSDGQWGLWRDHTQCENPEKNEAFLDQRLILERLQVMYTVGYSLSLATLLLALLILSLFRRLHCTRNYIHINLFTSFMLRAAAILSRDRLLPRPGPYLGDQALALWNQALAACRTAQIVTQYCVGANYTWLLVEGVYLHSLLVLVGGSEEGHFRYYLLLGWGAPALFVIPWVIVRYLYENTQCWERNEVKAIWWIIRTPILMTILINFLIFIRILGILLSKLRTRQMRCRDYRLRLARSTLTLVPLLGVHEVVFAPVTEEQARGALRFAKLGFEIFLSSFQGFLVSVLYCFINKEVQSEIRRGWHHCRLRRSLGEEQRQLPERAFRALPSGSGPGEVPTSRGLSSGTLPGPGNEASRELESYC

B1: exendin-4 derivative SEQ ID NO: 10 (peptide)
peptide: H[Aib]QGTFTSDLSKQK([γGlu-Palmitoyl])DEQRAKLFIEWL[Aib]AGGPSSGAPPPS-NH2
modifications: N-terminus assumed
SMILES: CCCCCCCCCCCCCCCC(=O)N[C@@H](CCC(=O)NCCCC[C@H](NC(=O)[C@H](CCC(N)=O)NC(=O)[C@H](CCCCN)NC(=O)[C@H](CO)NC(=O)[C@H](CC(C)C)NC(=O)[C@H](CC(=O)O)NC(=O)[C@H](CO)NC(=O)[C@@H](NC(=O)[C@H](Cc1ccccc1)NC(=O)[C@@H](NC(=O)CNC(=O)[C@H](CCC(N)=O)NC(=O)C(C)(C)NC(=O)[C@@H](N)Cc1c[nH]cn1)[C@@H](C)O)[C@@H](C)O)C(=O)N[C@@H](CC(=O)O)C(=O)N[C@@H](CCC(=O)O)C(=O)N[C@@H](CCC(N)=O)C(=O)N[C@@H](CCCNC(=N)N)C(=O)N[C@@H](C)C(=O)N[C@@H](CCCCN)C(=O)N[C@@H](CC(C)C)C(=O)N[C@@H](Cc1ccccc1)C(=O)N[C@H](C(=O)N[C@@H](CCC(=O)O)C(=O)N[C@@H](Cc1c[nH]c2ccccc12)C(=O)N[C@@H](CC(C)C)C(=O)NC(C)(C)C(=O)N[C@@H](C)C(=O)NCC(=O)NCC(=O)N1CCC[C@H]1C(=O)N[C@@H](CO)C(=O)N[C@@H](CO)C(=O)NCC(=O)N[C@@H](C)C(=O)N1CCC[C@H]1C(=O)N1CCC[C@H]1C(=O)N1CCC[C@H]1C(=O)N[C@@H](CO)C(N)=O)[C@@H](C)CC)C(=O)O
B2: exendin-4 derivative SEQ ID NO: 11 (peptide)
peptide: H[Aib]QGTFTSDLSKQK([γGlu-Palmitoyl])DEQRAKLFIEWL[Aib]A[dA]GPSSGAPPPS-NH2
modifications: N-terminus assumed
SMILES: CCCCCCCCCCCCCCCC(=O)N[C@@H](CCC(=O)NCCCC[C@H](NC(=O)[C@H](CCC(N)=O)NC(=O)[C@H](CCCCN)NC(=O)[C@H](CO)NC(=O)[C@H](CC(C)C)NC(=O)[C@H](CC(=O)O)NC(=O)[C@H](CO)NC(=O)[C@@H](NC(=O)[C@H](Cc1ccccc1)NC(=O)[C@@H](NC(=O)CNC(=O)[C@H](CCC(N)=O)NC(=O)C(C)(C)NC(=O)[C@@H](N)Cc1c[nH]cn1)[C@@H](C)O)[C@@H](C)O)C(=O)N[C@@H](CC(=O)O)C(=O)N[C@@H](CCC(=O)O)C(=O)N[C@@H](CCC(N)=O)C(=O)N[C@@H](CCCNC(=N)N)C(=O)N[C@@H](C)C(=O)N[C@@H](CCCCN)C(=O)N[C@@H](CC(C)C)C(=O)N[C@@H](Cc1ccccc1)C(=O)N[C@H](C(=O)N[C@@H](CCC(=O)O)C(=O)N[C@@H](Cc1c[nH]c2ccccc12)C(=O)N[C@@H](CC(C)C)C(=O)NC(C)(C)C(=O)N[C@@H](C)C(=O)N[C@H](C)C(=O)NCC(=O)N1CCC[C@H]1C(=O)N[C@@H](CO)C(=O)N[C@@H](CO)C(=O)NCC(=O)N[C@@H](C)C(=O)N1CCC[C@H]1C(=O)N1CCC[C@H]1C(=O)N1CCC[C@H]1C(=O)N[C@@H](CO)C(N)=O)[C@@H](C)CC)C(=O)O
B3: exendin-4 derivative SEQ ID NO: 9 (peptide)
peptide: H[Aib]QGTFTSDLSKQK([γGlu-Stearoyl])DEQRAKLFIEWL[Aib]AGGPSSGAPPPS-NH2
modifications: N-terminus assumed
SMILES: CCCCCCCCCCCCCCCCCC(=O)N[C@@H](CCC(=O)NCCCC[C@H](NC(=O)[C@H](CCC(N)=O)NC(=O)[C@H](CCCCN)NC(=O)[C@H](CO)NC(=O)[C@H](CC(C)C)NC(=O)[C@H](CC(=O)O)NC(=O)[C@H](CO)NC(=O)[C@@H](NC(=O)[C@H](Cc1ccccc1)NC(=O)[C@@H](NC(=O)CNC(=O)[C@H](CCC(N)=O)NC(=O)C(C)(C)NC(=O)[C@@H](N)Cc1c[nH]cn1)[C@@H](C)O)[C@@H](C)O)C(=O)N[C@@H](CC(=O)O)C(=O)N[C@@H](CCC(=O)O)C(=O)N[C@@H](CCC(N)=O)C(=O)N[C@@H](CCCNC(=N)N)C(=O)N[C@@H](C)C(=O)N[C@@H](CCCCN)C(=O)N[C@@H](CC(C)C)C(=O)N[C@@H](Cc1ccccc1)C(=O)N[C@H](C(=O)N[C@@H](CCC(=O)O)C(=O)N[C@@H](Cc1c[nH]c2ccccc12)C(=O)N[C@@H](CC(C)C)C(=O)NC(C)(C)C(=O)N[C@@H](C)C(=O)NCC(=O)NCC(=O)N1CCC[C@H]1C(=O)N[C@@H](CO)C(=O)N[C@@H](CO)C(=O)NCC(=O)N[C@@H](C)C(=O)N1CCC[C@H]1C(=O)N1CCC[C@H]1C(=O)N1CCC[C@H]1C(=O)N[C@@H](CO)C(N)=O)[C@@H](C)CC)C(=O)O
B4: exendin-4 derivative SEQ ID NO: 8 (peptide)
peptide: H[Aib]QGTFTSDLSKQK([γGlu-γGlu-Palmitoyl])DEQRAKLFIEWL[Aib]AGGPSSGAPPPS-NH2
modifications: N-terminus assumed
SMILES: CCCCCCCCCCCCCCCC(=O)N[C@@H](CCC(=O)N[C@@H](CCC(=O)NCCCC[C@H](NC(=O)[C@H](CCC(N)=O)NC(=O)[C@H](CCCCN)NC(=O)[C@H](CO)NC(=O)[C@H](CC(C)C)NC(=O)[C@H](CC(=O)O)NC(=O)[C@H](CO)NC(=O)[C@@H](NC(=O)[C@H](Cc1ccccc1)NC(=O)[C@@H](NC(=O)CNC(=O)[C@H](CCC(N)=O)NC(=O)C(C)(C)NC(=O)[C@@H](N)Cc1c[nH]cn1)[C@@H](C)O)[C@@H](C)O)C(=O)N[C@@H](CC(=O)O)C(=O)N[C@@H](CCC(=O)O)C(=O)N[C@@H](CCC(N)=O)C(=O)N[C@@H](CCCNC(=N)N)C(=O)N[C@@H](C)C(=O)N[C@@H](CCCCN)C(=O)N[C@@H](CC(C)C)C(=O)N[C@@H](Cc1ccccc1)C(=O)N[C@H](C(=O)N[C@@H](CCC(=O)O)C(=O)N[C@@H](Cc1c[nH]c2ccccc12)C(=O)N[C@@H](CC(C)C)C(=O)NC(C)(C)C(=O)N[C@@H](C)C(=O)NCC(=O)NCC(=O)N1CCC[C@H]1C(=O)N[C@@H](CO)C(=O)N[C@@H](CO)C(=O)NCC(=O)N[C@@H](C)C(=O)N1CCC[C@H]1C(=O)N1CCC[C@H]1C(=O)N1CCC[C@H]1C(=O)N[C@@H](CO)C(N)=O)[C@@H](C)CC)C(=O)O)C(=O)O
B5: exendin-4 derivative SEQ ID NO: 14 (peptide)
peptide: H[Aib]QGTFTSDLSKQK([γGlu-γGlu-Palmitoyl])DEQRAKLFIEWL[Aib]K[dA]GPSSGAPPPS-NH2
modifications: N-terminus assumed
SMILES: CCCCCCCCCCCCCCCC(=O)N[C@@H](CCC(=O)N[C@@H](CCC(=O)NCCCC[C@H](NC(=O)[C@H](CCC(N)=O)NC(=O)[C@H](CCCCN)NC(=O)[C@H](CO)NC(=O)[C@H](CC(C)C)NC(=O)[C@H](CC(=O)O)NC(=O)[C@H](CO)NC(=O)[C@@H](NC(=O)[C@H](Cc1ccccc1)NC(=O)[C@@H](NC(=O)CNC(=O)[C@H](CCC(N)=O)NC(=O)C(C)(C)NC(=O)[C@@H](N)Cc1c[nH]cn1)[C@@H](C)O)[C@@H](C)O)C(=O)N[C@@H](CC(=O)O)C(=O)N[C@@H](CCC(=O)O)C(=O)N[C@@H](CCC(N)=O)C(=O)N[C@@H](CCCNC(=N)N)C(=O)N[C@@H](C)C(=O)N[C@@H](CCCCN)C(=O)N[C@@H](CC(C)C)C(=O)N[C@@H](Cc1ccccc1)C(=O)N[C@H](C(=O)N[C@@H](CCC(=O)O)C(=O)N[C@@H](Cc1c[nH]c2ccccc12)C(=O)N[C@@H](CC(C)C)C(=O)NC(C)(C)C(=O)N[C@@H](CCCCN)C(=O)N[C@H](C)C(=O)NCC(=O)N1CCC[C@H]1C(=O)N[C@@H](CO)C(=O)N[C@@H](CO)C(=O)NCC(=O)N[C@@H](C)C(=O)N1CCC[C@H]1C(=O)N1CCC[C@H]1C(=O)N1CCC[C@H]1C(=O)N[C@@H](CO)C(N)=O)[C@@H](C)CC)C(=O)O)C(=O)O
B6: exendin-4 derivative SEQ ID NO: 12 (peptide)
peptide: H[Aib]QGTFTSDLSKQK([γGlu-γGlu-Palmitoyl])DEQRAKLFIEWL[Aib]S[dA]GPSSGAPPPS-NH2
modifications: N-terminus assumed
SMILES: CCCCCCCCCCCCCCCC(=O)N[C@@H](CCC(=O)N[C@@H](CCC(=O)NCCCC[C@H](NC(=O)[C@H](CCC(N)=O)NC(=O)[C@H](CCCCN)NC(=O)[C@H](CO)NC(=O)[C@H](CC(C)C)NC(=O)[C@H](CC(=O)O)NC(=O)[C@H](CO)NC(=O)[C@@H](NC(=O)[C@H](Cc1ccccc1)NC(=O)[C@@H](NC(=O)CNC(=O)[C@H](CCC(N)=O)NC(=O)C(C)(C)NC(=O)[C@@H](N)Cc1c[nH]cn1)[C@@H](C)O)[C@@H](C)O)C(=O)N[C@@H](CC(=O)O)C(=O)N[C@@H](CCC(=O)O)C(=O)N[C@@H](CCC(N)=O)C(=O)N[C@@H](CCCNC(=N)N)C(=O)N[C@@H](C)C(=O)N[C@@H](CCCCN)C(=O)N[C@@H](CC(C)C)C(=O)N[C@@H](Cc1ccccc1)C(=O)N[C@H](C(=O)N[C@@H](CCC(=O)O)C(=O)N[C@@H](Cc1c[nH]c2ccccc12)C(=O)N[C@@H](CC(C)C)C(=O)NC(C)(C)C(=O)N[C@@H](CO)C(=O)N[C@H](C)C(=O)NCC(=O)N1CCC[C@H]1C(=O)N[C@@H](CO)C(=O)N[C@@H](CO)C(=O)NCC(=O)N[C@@H](C)C(=O)N1CCC[C@H]1C(=O)N1CCC[C@H]1C(=O)N1CCC[C@H]1C(=O)N[C@@H](CO)C(N)=O)[C@@H](C)CC)C(=O)O)C(=O)O

Tests used:
Experiment in all cases: cell-based or functional assay
human GLP-1 receptor = human GLP-1 receptor (human, UniProt P43220 24-463)
human glucagon receptor = human glucagon receptor (human, UniProt P47871 26-477)
human glucagon receptor, sequence (P47871 26-477): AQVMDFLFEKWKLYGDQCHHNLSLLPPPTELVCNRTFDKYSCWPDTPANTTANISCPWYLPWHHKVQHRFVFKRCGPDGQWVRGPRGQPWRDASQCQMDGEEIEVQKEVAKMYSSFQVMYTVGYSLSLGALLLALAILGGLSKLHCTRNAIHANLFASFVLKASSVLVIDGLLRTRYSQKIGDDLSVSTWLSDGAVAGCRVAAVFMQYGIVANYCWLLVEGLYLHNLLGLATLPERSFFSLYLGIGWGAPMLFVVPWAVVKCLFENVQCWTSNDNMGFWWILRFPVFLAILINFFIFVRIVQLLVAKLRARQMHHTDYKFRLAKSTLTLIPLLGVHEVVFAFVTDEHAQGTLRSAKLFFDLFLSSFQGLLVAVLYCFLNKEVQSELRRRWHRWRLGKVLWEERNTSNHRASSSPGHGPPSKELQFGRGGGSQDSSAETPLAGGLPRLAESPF

human GIP receptor = molecular target: T1, human GIP receptor

Binder	EC50 hGLP-1R (cAMP formation) (human GLP-1 receptor) [nM]	EC50 hGlucagon-R (cAMP formation) (human glucagon receptor) [nM]	EC50 hGIP-R (cAMP formation) (human GIP receptor) [nM]
B1	0.0035	0.0524	0.89
B2	0.0103	0.261	13.4
B3	0.0064	0.0154	1.16
B4	0.0023	0.0281	2.14
H[Aib]QGTFTSDLSKQK([γGlu-γGlu-Palmitoyl])DEQRAKLFIEWL[Aib]KGGPSSGAPPPS-NH2 [exendin-4 derivative SEQ ID NO: 15]	–	0.0426	1.85
H[Aib]QGTFTSDLSKQK([γGlu-γGlu-Palmitoyl])DEQRAKLFIEWL[Aib]SGGPSSGAPPPS-NH2 [exendin-4 derivative SEQ ID NO: 13]	–	0.0228	2.39
B5	0.0041	0.194	6.53
B6	0.0037	0.13	8.29
